Assay [1] has as its target human CTLA-4 (human) (UniProt P16410). The experiment in a line: flow cytometry, CHO cells stably expressing CTLA4.
In assay [2] the target is CD28 (human) (UniProt P10747).
Assay [3] deals with human PD-L1 (human) (UniProt Q9NZQ7).
Assay [4] has as its target CD28 (human) (UniProt P10747). As to the kind of experiment: flow cytometry, Jurkat cells (CD28). (In general: Flow cytometry measures light scatter and fluorescence of single cells or particles in a stream.)
Assay [5] addresses human PD-L1 (human) (UniProt Q9NZQ7). The experiment in a line: flow cytometry, MFI on CHO/PD-L1 over MFI on Jurkat (CD28).
The target is the same in assay [6]. As to the kind of experiment: flow cytometry, CHO cells stably expressing PD-L1.
The target of assay [7] is CD28 (human) (UniProt P10747). The experiment in a line: flow cytometry, Jurkat cells (CD28); MFI over CD80 WT IgV-Fc.
Assay [8] has as its target human CTLA-4 (human) (UniProt P16410). As to the kind of experiment: flow cytometry, CHO/CTLA4 cells; MFI over CD80 WT IgV-Fc.
The target in assay [9] is human PD-L1 (human) (UniProt Q9NZQ7). The experiment in a line: flow cytometry, CHO/PD-L1 cells; MFI over CD80 WT IgV-Fc.
Assay [10] addresses CD28 (human) (UniProt P10747). This is another data set of the same source.
Assay [11] concerns the target human PD-L1 (human) (UniProt Q9NZQ7). The source holds these as a separate data set.
Assay [12] has the same target. As to the kind of experiment: flow cytometry, HEK293 cells transfected with full-length human PD-L1, PE anti-human Fc.
For assay [13] the target is unchanged. As to the kind of experiment: flow cytometry, HEK293 cells transfected with human PD-L1.
The target in assay [14] is CD28 (human) (UniProt P10747). The source holds these as a separate data set.
Assay [15] deals with human PD-L1 (human) (UniProt Q9NZQ7). The source holds these as a separate data set.
Assay [16] has as its target CD28 (human) (UniProt P10747). The source holds these as a separate data set.
Assay [17] addresses human PD-L1 (human) (UniProt Q9NZQ7). The source holds these as a separate data set.

Read-outs that look alike come from different tables or passages of the source.

From patent US20220177587A1, “METHODS AND USES OF VARIANT CD80 FUSION PROTEINS AND RELATED CONSTRUCTS” (Alpine Immune Sciences, Inc., priority 2018, published 2022) come the findings set out here.

Sequence of human CTLA-4 (human) (P16410 36-223): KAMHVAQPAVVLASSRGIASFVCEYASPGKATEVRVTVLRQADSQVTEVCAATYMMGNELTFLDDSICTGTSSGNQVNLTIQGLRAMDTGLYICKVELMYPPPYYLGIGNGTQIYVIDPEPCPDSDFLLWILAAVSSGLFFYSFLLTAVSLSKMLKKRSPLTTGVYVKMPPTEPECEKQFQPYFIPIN
Sequence of human PD-L1 (human) (Q9NZQ7 19-290): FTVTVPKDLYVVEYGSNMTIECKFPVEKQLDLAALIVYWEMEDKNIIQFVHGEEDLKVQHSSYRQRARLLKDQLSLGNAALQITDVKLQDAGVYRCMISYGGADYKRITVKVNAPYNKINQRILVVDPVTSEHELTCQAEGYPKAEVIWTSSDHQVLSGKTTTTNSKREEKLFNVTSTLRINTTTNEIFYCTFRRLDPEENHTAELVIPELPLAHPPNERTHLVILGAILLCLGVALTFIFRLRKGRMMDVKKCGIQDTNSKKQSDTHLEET

B1: CD80 IgV-Fc E35D/M47L/V68M/A71G/L85Q/D90G (Fc fusion)
chain: VIHVTKEVKEVATLSCGHNVSVEELAQTRIYWQKDKKMVLTMMSGDLNIWPEYKNRTIFDITNNLSIMILGLRPSDEGTYECVVQKYEKGAFKREHLAEVTLSVKAD
The molecule B1 registered a Fold change to WT CD80 in [1] of 10.1 fold. For the same molecule, the MFI at 33.3 nM was 10300 MFI in assay [1], 1400 MFI in assay [4] and 16800 MFI in assay [6]. For the same molecule, the RLU at 5.0 nM: Fold Increase over WT CD80-IgV-Fc in [2] and in [3] was 2.3 fold throughout. Moreover, the Fold change to WT in assay [4] turned out to be 33.9 fold; in [6], 202 fold. In addition, the Ratio of PDL1:CD28 in [5] is 12.

B2: variant CD80 IgV-Fc (inert) H18V/A26P/E35D/M47L/V68M/A71G (Fc fusion)
chain: VIHVTKEVKEVATLSCGVNVSVEELPQTRIYWQKDKKMVLTMMSGDLNIWPEYKNRTIFDITNNLSIMILGLRPSDEGTYECVVLKYEKDAFKREHLAEVTLSVKAD
Take B2: the Fold change to WT CD80 in [7] amounted to 24 fold; in assay [8] it was 11.7 fold; in assay [9], 318 fold. The MFI at 33.3 nM in [1] came to 16200 MFI; in assay [4] it was 2450 MFI; in [6], 52400 MFI. Moreover, the IL2-luciferase reporter, fold increase in RLU over WT CD80-IgV-Fc at 5.0 nM in assay [10] and in assay [11] was 4.7 fold each time.

B3: variant CD80 IgV-Fc E35G/K54E/A71D/L72P (Fc fusion)
chain: VIHVTKEVKEVATLSCGHNVSVEELAQTRIYWQKGKKMVLTMMSGDMNIWPEYENRTIFDITNNLSIVILDPRPSDEGTYECVVLKYEKDAFKREHLAEVTLSVKAD
In turn, B3 displayed an MFI at 22.2 nM in assay [12] of 1580 MFI.

B4: variant CD80 IgV-Fc I30T/L70R (Fc fusion)
chain: VIHVTKEVKEVATLSCGHNVSVEELAQTRTYWQKEKKMVLTMMSGDMNIWPEYKNRTIFDITNNLSIVIRALRPSDEGTYECVVLKYEKDAFKREHLAEVTLSVKAD
The molecule B4 gave an MFI at 22.2 nM in assay [13] of 5160.

B5: variant CD80 IgV-Fc (inert) H18L/A26N/D46E/V68M/A71G/D90G (Fc fusion)
chain: VIHVTKEVKEVATLSCGLNVSVEELNQTRIYWQKEKKMVLTMMSGEMNIWPEYKNRTIFDITNNLSIMILGLRPSDEGTYECVVLKYEKGAFKREHLAEVTLSVKAD
Regarding B5, the results for the Fold change to WT CD80 in assay [7], in [8] and in assay [9] were 71.1 fold, 12.3 fold and 412 fold, respectively. Also, the results for the MFI at 33.3 nM in [1], in [4] and in assay [6] were 17000 MFI, 7250 MFI and 68000 MFI, respectively. The IL2-luciferase reporter, fold increase in RLU over WT CD80-IgV-Fc at 5.0 nM in assay [10] and in assay [11] was 4.8 fold in each case.

B6: CD80 IgV-Fc H18Y/E35D/M47V/V68M/L85M (Fc fusion)
chain: VIHVTKEVKEVATLSCGYNVSVEELAQTRIYWQKDKKMVLTMMSGDVNIWPEYKNRTIFDITNNLSIMILALRPSDEGTYECVVMKYEKDAFKREHLAEVTLSVKAD
For the molecule B6, the values for the Fold change to WT CD80 in assay [1], in assay [4] and in assay [6] were 18.5 fold, 33.7 fold and 43.6 fold, respectively. In addition, the MFI at 33.3 nM is 19300 MFI in assay [1], 1390 MFI in [4] and 3090 MFI in assay [6]. Also, the RLU at 5.0 nM: Fold Increase over WT CD80-IgV-Fc in assay [14] stood at 6.4 fold; in assay [15], 6.4 fold; in [16], 2.5 fold; in [17], 2.5 fold. The Ratio of PDL1:CD28 in assay [5] amounted to 2.2.
